Measured values published in PMC2871490 (The Journal of Biological Chemistry, 2010).
Values belong to the binder of their own block, whether it stands above or below them.

Key:
Assay in all cases: pull-down
GST-Daam1 CT L1040A = GST-Daam1 CT L1040A (human, UniProt Q9Y4D1 490-1078, L1040A)
GST-Daam1 CT WT = GST-Daam1 CT WT (human, UniProt Q9Y4D1 490-1078)
His6-Daam1 CT = His6-Daam1 CT (human, UniProt Q9Y4D1 490-1078)
His6-Daam1 NT = target: T1, His6-Daam1 NT (human, UniProt Q9Y4D1 41-477)
T1 sequence: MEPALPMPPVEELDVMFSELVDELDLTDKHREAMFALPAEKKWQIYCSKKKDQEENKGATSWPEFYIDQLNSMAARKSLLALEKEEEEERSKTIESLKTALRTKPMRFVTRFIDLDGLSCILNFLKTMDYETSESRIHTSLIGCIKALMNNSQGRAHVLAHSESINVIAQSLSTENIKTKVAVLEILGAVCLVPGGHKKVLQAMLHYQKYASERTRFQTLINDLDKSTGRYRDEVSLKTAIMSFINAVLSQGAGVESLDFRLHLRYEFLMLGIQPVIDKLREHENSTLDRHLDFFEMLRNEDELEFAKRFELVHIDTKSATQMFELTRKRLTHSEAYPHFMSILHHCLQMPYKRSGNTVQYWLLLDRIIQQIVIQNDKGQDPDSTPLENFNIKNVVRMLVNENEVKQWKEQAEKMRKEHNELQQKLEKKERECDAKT

His6-Fli-I G1–6 = target: T2, His6-Fli-I G1–6 (human, UniProt Q13045 461-1269)
T2 sequence: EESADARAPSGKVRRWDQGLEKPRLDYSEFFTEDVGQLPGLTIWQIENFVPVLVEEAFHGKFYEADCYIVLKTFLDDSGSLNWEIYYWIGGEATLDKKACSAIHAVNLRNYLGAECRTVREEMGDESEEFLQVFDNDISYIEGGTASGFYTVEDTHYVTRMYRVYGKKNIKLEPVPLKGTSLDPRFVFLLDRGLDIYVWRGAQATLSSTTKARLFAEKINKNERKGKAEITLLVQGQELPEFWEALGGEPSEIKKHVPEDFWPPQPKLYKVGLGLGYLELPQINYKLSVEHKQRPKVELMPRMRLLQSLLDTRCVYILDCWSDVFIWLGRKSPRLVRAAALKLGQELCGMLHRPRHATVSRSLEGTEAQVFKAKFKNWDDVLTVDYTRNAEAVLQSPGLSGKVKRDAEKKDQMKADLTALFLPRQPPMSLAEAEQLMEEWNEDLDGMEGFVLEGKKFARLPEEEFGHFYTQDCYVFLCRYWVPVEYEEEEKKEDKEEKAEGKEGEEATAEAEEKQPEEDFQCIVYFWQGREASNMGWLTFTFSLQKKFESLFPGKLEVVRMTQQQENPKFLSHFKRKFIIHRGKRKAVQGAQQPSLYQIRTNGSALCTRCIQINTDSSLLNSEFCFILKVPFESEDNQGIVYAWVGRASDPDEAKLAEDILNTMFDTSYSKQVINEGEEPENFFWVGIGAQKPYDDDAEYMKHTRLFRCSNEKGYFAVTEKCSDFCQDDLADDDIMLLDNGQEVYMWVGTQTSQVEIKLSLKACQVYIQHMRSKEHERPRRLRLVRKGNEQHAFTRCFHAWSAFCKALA

binding result (GST-Daam1 CT L1040A): binds
binding result (GST-Daam1 CT WT): binds
binding result (His6-Daam1 CT): binds
B1: His6-Fli-I G4–6 (domain or fragment)
chain: KKDQMKADLTALFLPRQPPMSLAEAEQLMEEWNEDLDGMEGFVLEGKKFARLPEEEFGHFYTQDCYVFLCRYWVPVEYEEEEKKEDKEEKAEGKEGEEATAEAEEKQPEEDFQCIVYFWQGREASNMGWLTFTFSLQKKFESLFPGKLEVVRMTQQQENPKFLSHFKRKFIIHRGKRKAVQGAQQPSLYQIRTNGSALCTRCIQINTDSSLLNSEFCFILKVPFESEDNQGIVYAWVGRASDPDEAKLAEDILNTMFDTSYSKQVINEGEEPENFFWVGIGAQKPYDDDAEYMKHTRLFRCSNEKGYFAVTEKCSDFCQDDLADDDIMLLDNGQEVYMWVGTQTSQVEIKLSLKACQVYIQHMRSKEHERPRRLRLVRKGNEQHAFTRCFHAWSAFCKALA

binding result (His6-Daam1 CT): binds
B2: GST-Fli-I G4–6 (domain or fragment)
chain: B1 chain

binding result (His6-Daam1 CT): binds
B3: GST-Daam1 NT (domain or fragment)
chain: T1 sequence

binding result (His6-Daam1 NT): binds
binding result (His6-Fli-I G1–6): binds
B4: GST-Daam1 DAD (domain or fragment)
chain: NMRKKKEEEERRARMEAQLKEQRERERKMRKAKENSEESGEFDDLVSALRSGEVFDKDLSKLKRNRKRITNQMTDSSRERPITKLNF
